According to IntAct's records for PubMed 35512704:

B1: Speckle-type POZ protein (Homo sapiens), O43791 (parent)
chain: MSRVPSPPPPAEMSSGPVAESWCYTQIKVVKFSYMWTINNFSFCREEMGEVIKSSTFSSGANDKLKWCLRVNPKGLDEESKDYLSLYLLLVSCPKSEVRAKFKFSILNAKGEETKAMESQRAYRFVQGKDWGFKKFIRRDFLLDEANGLLPDDKLTLFCEVSVVQDSVNISGQNTMNMVKVPECRLADELGGLWENSRFTDCCLCVAGQEFQAHKAILAARSPVFSAMFEHEMEESKKNRVEINDVEPEVFKEMMCFIYTGKAPNLDKMADDLLAAADKYALERLKVMCEDALCSNLSVENAAEILILADLHSADQLKTQAVDFINYHASDVLETSGWKSMVVSHPHLVAEAYRSLASAQCPFLGPPRKRLKQS

Variants of: B1
Settings: with dpod1_human POLD1, P28340
Chain of dpod1_human POLD1, P28340 (P28340 whole entry): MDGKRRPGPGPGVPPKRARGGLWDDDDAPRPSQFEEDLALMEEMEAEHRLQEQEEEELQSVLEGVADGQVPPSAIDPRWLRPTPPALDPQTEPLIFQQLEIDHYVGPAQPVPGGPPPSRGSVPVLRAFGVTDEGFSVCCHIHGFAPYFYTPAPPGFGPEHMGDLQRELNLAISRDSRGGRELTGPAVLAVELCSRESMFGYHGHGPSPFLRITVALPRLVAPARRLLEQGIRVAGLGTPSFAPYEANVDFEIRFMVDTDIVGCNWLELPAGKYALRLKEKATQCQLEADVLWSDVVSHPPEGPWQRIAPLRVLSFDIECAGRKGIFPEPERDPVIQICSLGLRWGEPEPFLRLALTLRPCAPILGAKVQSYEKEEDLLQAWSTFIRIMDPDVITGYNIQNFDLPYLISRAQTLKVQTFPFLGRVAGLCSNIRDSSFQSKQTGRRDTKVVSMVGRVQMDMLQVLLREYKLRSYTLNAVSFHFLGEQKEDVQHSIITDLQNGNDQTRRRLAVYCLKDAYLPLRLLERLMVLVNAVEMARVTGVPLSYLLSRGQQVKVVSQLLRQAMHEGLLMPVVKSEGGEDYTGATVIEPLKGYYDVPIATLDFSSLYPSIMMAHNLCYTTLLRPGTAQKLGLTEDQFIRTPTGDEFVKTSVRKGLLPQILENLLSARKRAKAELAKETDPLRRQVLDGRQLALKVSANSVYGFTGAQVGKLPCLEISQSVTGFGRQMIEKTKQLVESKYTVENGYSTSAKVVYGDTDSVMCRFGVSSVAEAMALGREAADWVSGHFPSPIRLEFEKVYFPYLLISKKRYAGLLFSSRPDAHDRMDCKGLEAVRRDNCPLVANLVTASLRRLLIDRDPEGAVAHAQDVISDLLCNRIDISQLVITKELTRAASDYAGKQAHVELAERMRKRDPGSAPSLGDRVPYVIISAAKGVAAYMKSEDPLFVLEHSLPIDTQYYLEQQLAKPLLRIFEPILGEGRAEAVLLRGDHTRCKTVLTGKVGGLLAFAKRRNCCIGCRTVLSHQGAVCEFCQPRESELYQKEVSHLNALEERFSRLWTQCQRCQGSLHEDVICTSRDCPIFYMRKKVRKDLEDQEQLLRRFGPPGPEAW

| effect of a mutation on the interaction | Variant |
| --- | --- |
| with no effect | MSRVPSPPPPAEMSSGPVAESWCYTQIKVVKFSYMWTINNFSFCREEMGEVIKSSTFSSGANDKLKWCLRVNPKGLDEESKDYLSLYLLLVSCPKSEVRAKCKFSILNAKGEETKAMESQRAYRFVQGKDWGFKKFIRRDFLLDEANGLLPDDKLTLFCEVSVVQDSVNISGQNTMNMVKVPECRLADELGGLWENSRFTDCCLCVAGQEFQAHKAILAARSPVFSAMFEHEMEESKKNRVEINDVEPEVFKEMMCFIYTGKAPNLDKMADDLLAAADKYALERLKVMCEDALCSNLSVENAAEILILADLHSADQLKTQAVDFINYHASDVLETSGWKSMVVSHPHLVAEAYRSLASAQCPFLGPPRKRLKQS [F102C] |

Variants of: B1
Settings: with dpoe1_human POLE

| effect of a mutation on the interaction | Variant |
| --- | --- |
| with no effect | MSRVPSPPPPAEMSSGPVAESWCYTQIKVVKFSYMWTINNFSFCREEMGEVIKSSTFSSGANDKLKWCLRVNPKGLDEESKDYLSLYLLLVSCPKSEVRAKCKFSILNAKGEETKAMESQRAYRFVQGKDWGFKKFIRRDFLLDEANGLLPDDKLTLFCEVSVVQDSVNISGQNTMNMVKVPECRLADELGGLWENSRFTDCCLCVAGQEFQAHKAILAARSPVFSAMFEHEMEESKKNRVEINDVEPEVFKEMMCFIYTGKAPNLDKMADDLLAAADKYALERLKVMCEDALCSNLSVENAAEILILADLHSADQLKTQAVDFINYHASDVLETSGWKSMVVSHPHLVAEAYRSLASAQCPFLGPPRKRLKQS [F102C] |

Variants of: B1
Settings: with ppard_human PPARD

| effect of a mutation on the interaction | Variant |
| --- | --- |
| with no effect | MSRVPSPPPPAEMSSGPVAESWCYTQIKVVKFSYMWTINNFSFCREEMGEVIKSSTFSSGANDKLKWCLRVNPKGLDEESKDYLSLYLLLVSCPKSEVRAKCKFSILNAKGEETKAMESQRAYRFVQGKDWGFKKFIRRDFLLDEANGLLPDDKLTLFCEVSVVQDSVNISGQNTMNMVKVPECRLADELGGLWENSRFTDCCLCVAGQEFQAHKAILAARSPVFSAMFEHEMEESKKNRVEINDVEPEVFKEMMCFIYTGKAPNLDKMADDLLAAADKYALERLKVMCEDALCSNLSVENAAEILILADLHSADQLKTQAVDFINYHASDVLETSGWKSMVVSHPHLVAEAYRSLASAQCPFLGPPRKRLKQS [F102C] |

Variants of: B1
Settings: with prdm1_human PRDM1, O75626

| effect of a mutation on the interaction | Variant |
| --- | --- |
| with no effect | MSRVPSPPPPAEMSSGPVAESWCYTQIKVVKFSYMWTINNFSFCREEMGEVIKSSTFSSGANDKLKWCLRVNPKGLDEESKDYLSLYLLLVSCPKSEVRAKCKFSILNAKGEETKAMESQRAYRFVQGKDWGFKKFIRRDFLLDEANGLLPDDKLTLFCEVSVVQDSVNISGQNTMNMVKVPECRLADELGGLWENSRFTDCCLCVAGQEFQAHKAILAARSPVFSAMFEHEMEESKKNRVEINDVEPEVFKEMMCFIYTGKAPNLDKMADDLLAAADKYALERLKVMCEDALCSNLSVENAAEILILADLHSADQLKTQAVDFINYHASDVLETSGWKSMVVSHPHLVAEAYRSLASAQCPFLGPPRKRLKQS [F102C] |

Variants of: B1
Settings: with prex2_human PREX2, Q70Z35
Chain of prex2_human PREX2, Q70Z35 (Q70Z35 whole entry): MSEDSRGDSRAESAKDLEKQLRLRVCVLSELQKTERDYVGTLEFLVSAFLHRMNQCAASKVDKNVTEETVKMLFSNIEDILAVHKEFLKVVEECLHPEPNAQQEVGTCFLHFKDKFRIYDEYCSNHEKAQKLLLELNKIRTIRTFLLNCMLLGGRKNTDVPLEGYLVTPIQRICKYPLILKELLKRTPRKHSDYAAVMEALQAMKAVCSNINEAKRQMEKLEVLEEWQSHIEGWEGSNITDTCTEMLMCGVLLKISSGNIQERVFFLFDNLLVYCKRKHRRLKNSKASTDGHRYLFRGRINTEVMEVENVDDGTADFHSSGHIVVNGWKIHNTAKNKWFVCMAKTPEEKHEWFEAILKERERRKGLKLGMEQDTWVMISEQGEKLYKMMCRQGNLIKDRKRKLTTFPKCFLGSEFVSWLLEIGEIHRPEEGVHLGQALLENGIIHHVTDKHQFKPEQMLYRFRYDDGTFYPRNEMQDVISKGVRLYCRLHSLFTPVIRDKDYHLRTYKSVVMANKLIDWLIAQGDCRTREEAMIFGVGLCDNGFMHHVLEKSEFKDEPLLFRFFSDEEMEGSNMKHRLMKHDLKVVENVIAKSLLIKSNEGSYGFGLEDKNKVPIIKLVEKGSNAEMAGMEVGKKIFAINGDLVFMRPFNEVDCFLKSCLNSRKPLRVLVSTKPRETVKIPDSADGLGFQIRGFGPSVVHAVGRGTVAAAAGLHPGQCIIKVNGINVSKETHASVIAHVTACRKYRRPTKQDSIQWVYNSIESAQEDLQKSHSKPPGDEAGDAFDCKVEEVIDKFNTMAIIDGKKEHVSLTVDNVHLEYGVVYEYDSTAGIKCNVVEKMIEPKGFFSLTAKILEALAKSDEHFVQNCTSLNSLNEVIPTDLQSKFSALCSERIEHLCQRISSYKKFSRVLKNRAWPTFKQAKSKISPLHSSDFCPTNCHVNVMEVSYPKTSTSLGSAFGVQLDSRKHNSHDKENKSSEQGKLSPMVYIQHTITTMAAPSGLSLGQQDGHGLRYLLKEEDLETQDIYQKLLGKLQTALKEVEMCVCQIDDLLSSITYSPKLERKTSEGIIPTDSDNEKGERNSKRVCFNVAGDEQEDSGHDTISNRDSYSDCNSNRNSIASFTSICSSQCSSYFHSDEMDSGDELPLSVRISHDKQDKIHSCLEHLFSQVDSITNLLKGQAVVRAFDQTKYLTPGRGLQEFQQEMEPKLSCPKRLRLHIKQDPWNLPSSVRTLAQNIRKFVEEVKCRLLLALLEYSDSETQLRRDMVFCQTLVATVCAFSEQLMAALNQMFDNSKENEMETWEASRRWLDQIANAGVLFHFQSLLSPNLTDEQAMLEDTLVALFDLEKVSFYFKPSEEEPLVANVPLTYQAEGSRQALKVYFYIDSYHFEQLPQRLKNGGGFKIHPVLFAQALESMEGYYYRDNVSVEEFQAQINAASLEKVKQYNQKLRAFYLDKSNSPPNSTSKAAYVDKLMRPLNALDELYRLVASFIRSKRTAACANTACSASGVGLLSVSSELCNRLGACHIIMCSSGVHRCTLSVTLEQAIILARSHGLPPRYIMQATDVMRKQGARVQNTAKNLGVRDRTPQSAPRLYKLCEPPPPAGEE

| effect of a mutation on the interaction | Variant |
| --- | --- |
| with no effect | MSRVPSPPPPAEMSSGPVAESWCYTQIKVVKFSYMWTINNFSFCREEMGEVIKSSTFSSGANDKLKWCLRVNPKGLDEESKDYLSLYLLLVSCPKSEVRAKCKFSILNAKGEETKAMESQRAYRFVQGKDWGFKKFIRRDFLLDEANGLLPDDKLTLFCEVSVVQDSVNISGQNTMNMVKVPECRLADELGGLWENSRFTDCCLCVAGQEFQAHKAILAARSPVFSAMFEHEMEESKKNRVEINDVEPEVFKEMMCFIYTGKAPNLDKMADDLLAAADKYALERLKVMCEDALCSNLSVENAAEILILADLHSADQLKTQAVDFINYHASDVLETSGWKSMVVSHPHLVAEAYRSLASAQCPFLGPPRKRLKQS [F102C] |

Variants of: B1
Settings: with aapk2_human PRKAA2, P54646

| effect of a mutation on the interaction | Variant |
| --- | --- |
| with no effect | MSRVPSPPPPAEMSSGPVAESWCYTQIKVVKFSYMWTINNFSFCREEMGEVIKSSTFSSGANDKLKWCLRVNPKGLDEESKDYLSLYLLLVSCPKSEVRAKCKFSILNAKGEETKAMESQRAYRFVQGKDWGFKKFIRRDFLLDEANGLLPDDKLTLFCEVSVVQDSVNISGQNTMNMVKVPECRLADELGGLWENSRFTDCCLCVAGQEFQAHKAILAARSPVFSAMFEHEMEESKKNRVEINDVEPEVFKEMMCFIYTGKAPNLDKMADDLLAAADKYALERLKVMCEDALCSNLSVENAAEILILADLHSADQLKTQAVDFINYHASDVLETSGWKSMVVSHPHLVAEAYRSLASAQCPFLGPPRKRLKQS [F102C] |

Variants of: B1
Settings: with prss8_human PRSS8, Q16651

| effect of a mutation on the interaction | Variant |
| --- | --- |
| with no effect | MSRVPSPPPPAEMSSGPVAESWCYTQIKVVKFSYMWTINNFSFCREEMGEVIKSSTFSSGANDKLKWCLRVNPKGLDEESKDYLSLYLLLVSCPKSEVRAKCKFSILNAKGEETKAMESQRAYRFVQGKDWGFKKFIRRDFLLDEANGLLPDDKLTLFCEVSVVQDSVNISGQNTMNMVKVPECRLADELGGLWENSRFTDCCLCVAGQEFQAHKAILAARSPVFSAMFEHEMEESKKNRVEINDVEPEVFKEMMCFIYTGKAPNLDKMADDLLAAADKYALERLKVMCEDALCSNLSVENAAEILILADLHSADQLKTQAVDFINYHASDVLETSGWKSMVVSHPHLVAEAYRSLASAQCPFLGPPRKRLKQS [F102C] |

Variants of: B1
Settings: with tf65_human RELA

| effect of a mutation on the interaction | Variant |
| --- | --- |
| with no effect | MSRVPSPPPPAEMSSGPVAESWCYTQIKVVKFSYMWTINNFSFCREEMGEVIKSSTFSSGANDKLKWCLRVNPKGLDEESKDYLSLYLLLVSCPKSEVRAKCKFSILNAKGEETKAMESQRAYRFVQGKDWGFKKFIRRDFLLDEANGLLPDDKLTLFCEVSVVQDSVNISGQNTMNMVKVPECRLADELGGLWENSRFTDCCLCVAGQEFQAHKAILAARSPVFSAMFEHEMEESKKNRVEINDVEPEVFKEMMCFIYTGKAPNLDKMADDLLAAADKYALERLKVMCEDALCSNLSVENAAEILILADLHSADQLKTQAVDFINYHASDVLETSGWKSMVVSHPHLVAEAYRSLASAQCPFLGPPRKRLKQS [F102C] |

Variants of: B1
Settings: with rictr_human RICTOR

| effect of a mutation on the interaction | Variant |
| --- | --- |
| with no effect | MSRVPSPPPPAEMSSGPVAESWCYTQIKVVKFSYMWTINNFSFCREEMGEVIKSSTFSSGANDKLKWCLRVNPKGLDEESKDYLSLYLLLVSCPKSEVRAKCKFSILNAKGEETKAMESQRAYRFVQGKDWGFKKFIRRDFLLDEANGLLPDDKLTLFCEVSVVQDSVNISGQNTMNMVKVPECRLADELGGLWENSRFTDCCLCVAGQEFQAHKAILAARSPVFSAMFEHEMEESKKNRVEINDVEPEVFKEMMCFIYTGKAPNLDKMADDLLAAADKYALERLKVMCEDALCSNLSVENAAEILILADLHSADQLKTQAVDFINYHASDVLETSGWKSMVVSHPHLVAEAYRSLASAQCPFLGPPRKRLKQS [F102C] |

Variants of: B1
Settings: with rnf43_human RNF43, Q68DV7

| effect of a mutation on the interaction | Variant |
| --- | --- |
| with no effect | MSRVPSPPPPAEMSSGPVAESWCYTQIKVVKFSYMWTINNFSFCREEMGEVIKSSTFSSGANDKLKWCLRVNPKGLDEESKDYLSLYLLLVSCPKSEVRAKCKFSILNAKGEETKAMESQRAYRFVQGKDWGFKKFIRRDFLLDEANGLLPDDKLTLFCEVSVVQDSVNISGQNTMNMVKVPECRLADELGGLWENSRFTDCCLCVAGQEFQAHKAILAARSPVFSAMFEHEMEESKKNRVEINDVEPEVFKEMMCFIYTGKAPNLDKMADDLLAAADKYALERLKVMCEDALCSNLSVENAAEILILADLHSADQLKTQAVDFINYHASDVLETSGWKSMVVSHPHLVAEAYRSLASAQCPFLGPPRKRLKQS [F102C] |

Variants of: B1
Settings: with ros1_human ROS1, P08922
Chain of ros1_human ROS1, P08922 (P08922 whole entry): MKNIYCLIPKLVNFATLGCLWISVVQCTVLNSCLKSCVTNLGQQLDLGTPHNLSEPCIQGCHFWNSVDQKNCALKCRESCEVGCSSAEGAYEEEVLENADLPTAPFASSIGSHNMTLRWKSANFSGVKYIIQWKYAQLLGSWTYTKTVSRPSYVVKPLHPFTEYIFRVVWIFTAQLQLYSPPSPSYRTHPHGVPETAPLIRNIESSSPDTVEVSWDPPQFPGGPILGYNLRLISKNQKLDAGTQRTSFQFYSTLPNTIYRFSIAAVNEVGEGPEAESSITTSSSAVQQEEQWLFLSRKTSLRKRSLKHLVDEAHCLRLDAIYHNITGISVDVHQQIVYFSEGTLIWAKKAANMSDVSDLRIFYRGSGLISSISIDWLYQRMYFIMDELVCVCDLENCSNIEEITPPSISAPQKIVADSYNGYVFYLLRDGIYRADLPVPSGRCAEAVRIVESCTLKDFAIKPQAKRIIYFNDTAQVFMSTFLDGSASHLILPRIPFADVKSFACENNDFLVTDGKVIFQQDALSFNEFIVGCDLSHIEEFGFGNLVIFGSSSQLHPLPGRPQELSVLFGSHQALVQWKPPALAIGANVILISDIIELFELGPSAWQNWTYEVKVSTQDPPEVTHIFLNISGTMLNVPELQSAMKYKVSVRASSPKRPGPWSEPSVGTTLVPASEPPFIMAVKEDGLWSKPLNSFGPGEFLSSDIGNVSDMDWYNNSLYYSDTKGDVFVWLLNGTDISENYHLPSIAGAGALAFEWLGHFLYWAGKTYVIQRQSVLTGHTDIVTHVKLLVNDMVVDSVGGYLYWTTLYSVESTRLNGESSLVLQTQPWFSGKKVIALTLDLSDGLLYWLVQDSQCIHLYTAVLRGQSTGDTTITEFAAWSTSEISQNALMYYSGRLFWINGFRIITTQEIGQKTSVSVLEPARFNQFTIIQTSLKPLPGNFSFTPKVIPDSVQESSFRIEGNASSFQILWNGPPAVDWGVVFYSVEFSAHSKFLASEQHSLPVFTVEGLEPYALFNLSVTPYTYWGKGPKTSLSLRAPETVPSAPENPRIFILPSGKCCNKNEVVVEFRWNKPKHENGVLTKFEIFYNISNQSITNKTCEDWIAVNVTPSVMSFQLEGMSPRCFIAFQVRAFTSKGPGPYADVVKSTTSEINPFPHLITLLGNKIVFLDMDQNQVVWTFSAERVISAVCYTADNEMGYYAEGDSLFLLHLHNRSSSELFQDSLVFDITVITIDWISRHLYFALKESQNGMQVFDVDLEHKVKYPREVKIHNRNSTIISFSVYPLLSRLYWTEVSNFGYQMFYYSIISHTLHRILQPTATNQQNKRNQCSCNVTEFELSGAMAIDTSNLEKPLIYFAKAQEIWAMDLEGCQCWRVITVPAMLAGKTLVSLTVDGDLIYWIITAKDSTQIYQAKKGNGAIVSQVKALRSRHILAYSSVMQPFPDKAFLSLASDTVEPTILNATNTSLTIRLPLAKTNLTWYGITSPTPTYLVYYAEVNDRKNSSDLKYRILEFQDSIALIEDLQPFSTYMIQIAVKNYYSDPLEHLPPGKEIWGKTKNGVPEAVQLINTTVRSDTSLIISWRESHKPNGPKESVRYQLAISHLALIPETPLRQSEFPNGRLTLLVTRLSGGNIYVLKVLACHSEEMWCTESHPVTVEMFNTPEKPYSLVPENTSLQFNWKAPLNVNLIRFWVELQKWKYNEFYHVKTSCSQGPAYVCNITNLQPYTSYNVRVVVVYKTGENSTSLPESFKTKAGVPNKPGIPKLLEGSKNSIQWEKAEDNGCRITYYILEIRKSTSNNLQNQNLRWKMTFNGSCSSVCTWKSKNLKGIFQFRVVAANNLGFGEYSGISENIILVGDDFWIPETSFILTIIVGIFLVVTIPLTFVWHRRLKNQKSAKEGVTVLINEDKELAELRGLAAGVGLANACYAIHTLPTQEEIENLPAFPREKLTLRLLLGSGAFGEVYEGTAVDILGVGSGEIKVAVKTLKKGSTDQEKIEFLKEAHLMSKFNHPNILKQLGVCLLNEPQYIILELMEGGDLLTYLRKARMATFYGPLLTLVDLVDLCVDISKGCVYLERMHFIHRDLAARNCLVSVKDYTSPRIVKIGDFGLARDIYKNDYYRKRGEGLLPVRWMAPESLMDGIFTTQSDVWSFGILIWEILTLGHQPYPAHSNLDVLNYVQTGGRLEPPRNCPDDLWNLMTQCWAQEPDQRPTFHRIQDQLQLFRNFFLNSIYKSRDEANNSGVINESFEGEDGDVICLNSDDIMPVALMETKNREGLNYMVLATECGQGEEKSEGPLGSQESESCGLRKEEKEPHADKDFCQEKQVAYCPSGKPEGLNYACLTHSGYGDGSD

| effect of a mutation on the interaction | Variant |
| --- | --- |
| with no effect | MSRVPSPPPPAEMSSGPVAESWCYTQIKVVKFSYMWTINNFSFCREEMGEVIKSSTFSSGANDKLKWCLRVNPKGLDEESKDYLSLYLLLVSCPKSEVRAKCKFSILNAKGEETKAMESQRAYRFVQGKDWGFKKFIRRDFLLDEANGLLPDDKLTLFCEVSVVQDSVNISGQNTMNMVKVPECRLADELGGLWENSRFTDCCLCVAGQEFQAHKAILAARSPVFSAMFEHEMEESKKNRVEINDVEPEVFKEMMCFIYTGKAPNLDKMADDLLAAADKYALERLKVMCEDALCSNLSVENAAEILILADLHSADQLKTQAVDFINYHASDVLETSGWKSMVVSHPHLVAEAYRSLASAQCPFLGPPRKRLKQS [F102C] |

Variants of: B1
Settings: with rl11_human RPL11, P62913

| effect of a mutation on the interaction | Variant |
| --- | --- |
| with no effect | MSRVPSPPPPAEMSSGPVAESWCYTQIKVVKFSYMWTINNFSFCREEMGEVIKSSTFSSGANDKLKWCLRVNPKGLDEESKDYLSLYLLLVSCPKSEVRAKCKFSILNAKGEETKAMESQRAYRFVQGKDWGFKKFIRRDFLLDEANGLLPDDKLTLFCEVSVVQDSVNISGQNTMNMVKVPECRLADELGGLWENSRFTDCCLCVAGQEFQAHKAILAARSPVFSAMFEHEMEESKKNRVEINDVEPEVFKEMMCFIYTGKAPNLDKMADDLLAAADKYALERLKVMCEDALCSNLSVENAAEILILADLHSADQLKTQAVDFINYHASDVLETSGWKSMVVSHPHLVAEAYRSLASAQCPFLGPPRKRLKQS [F102C] |

Variants of: B1
Settings: with rl5_human RPL5, P46777

| effect of a mutation on the interaction | Variant |
| --- | --- |
| with no effect | MSRVPSPPPPAEMSSGPVAESWCYTQIKVVKFSYMWTINNFSFCREEMGEVIKSSTFSSGANDKLKWCLRVNPKGLDEESKDYLSLYLLLVSCPKSEVRAKCKFSILNAKGEETKAMESQRAYRFVQGKDWGFKKFIRRDFLLDEANGLLPDDKLTLFCEVSVVQDSVNISGQNTMNMVKVPECRLADELGGLWENSRFTDCCLCVAGQEFQAHKAILAARSPVFSAMFEHEMEESKKNRVEINDVEPEVFKEMMCFIYTGKAPNLDKMADDLLAAADKYALERLKVMCEDALCSNLSVENAAEILILADLHSADQLKTQAVDFINYHASDVLETSGWKSMVVSHPHLVAEAYRSLASAQCPFLGPPRKRLKQS [F102C] |

Variants of: B1
Settings: with rs15_human RPS15, P62841

| effect of a mutation on the interaction | Variant |
| --- | --- |
| with no effect | MSRVPSPPPPAEMSSGPVAESWCYTQIKVVKFSYMWTINNFSFCREEMGEVIKSSTFSSGANDKLKWCLRVNPKGLDEESKDYLSLYLLLVSCPKSEVRAKCKFSILNAKGEETKAMESQRAYRFVQGKDWGFKKFIRRDFLLDEANGLLPDDKLTLFCEVSVVQDSVNISGQNTMNMVKVPECRLADELGGLWENSRFTDCCLCVAGQEFQAHKAILAARSPVFSAMFEHEMEESKKNRVEINDVEPEVFKEMMCFIYTGKAPNLDKMADDLLAAADKYALERLKVMCEDALCSNLSVENAAEILILADLHSADQLKTQAVDFINYHASDVLETSGWKSMVVSHPHLVAEAYRSLASAQCPFLGPPRKRLKQS [F102C] |

Variants of: B1
Settings: with rptor_human RPTOR

| effect of a mutation on the interaction | Variant |
| --- | --- |
| with no effect | MSRVPSPPPPAEMSSGPVAESWCYTQIKVVKFSYMWTINNFSFCREEMGEVIKSSTFSSGANDKLKWCLRVNPKGLDEESKDYLSLYLLLVSCPKSEVRAKCKFSILNAKGEETKAMESQRAYRFVQGKDWGFKKFIRRDFLLDEANGLLPDDKLTLFCEVSVVQDSVNISGQNTMNMVKVPECRLADELGGLWENSRFTDCCLCVAGQEFQAHKAILAARSPVFSAMFEHEMEESKKNRVEINDVEPEVFKEMMCFIYTGKAPNLDKMADDLLAAADKYALERLKVMCEDALCSNLSVENAAEILILADLHSADQLKTQAVDFINYHASDVLETSGWKSMVVSHPHLVAEAYRSLASAQCPFLGPPRKRLKQS [F102C] |
